In patent US20220204580A1 (AstraZeneca / MedImmune, published 2022):
Numbered stars: 1 amine (or outer) side, 2 acyl side, 3 side chain; on linkers, the order of the positions; unused ones are H or OH. Bridge positions count the residues as written; N and C are the ends. Square brackets hold non-standard residues; d marks the D form. Side chains are listed from the residue outwards. Ends that are not written are not given here. * marks the point of attachment. C18 diacid = O=C(O)CCCCCCCCCCCCCCCCC(=O)*; γGlu = O=C(O)[C@H](CCC(=O)[*:2])N[*:1]; αMeF = C[C@](N)(Cc1ccccc1)C(=O)O; Dab = NCC[C@H](N)C(=O)O; AEEA = NCCOCCOCC(=O)O; Aib = CC(C)(N)C(=O)O

T1: human amylin receptor (calcitonin receptor co-expressed with receptor activity modifying protein, RAMP3) (human, UniProt P30988 25-474; O60896 24-148)
T1 sequence (looked up) 1: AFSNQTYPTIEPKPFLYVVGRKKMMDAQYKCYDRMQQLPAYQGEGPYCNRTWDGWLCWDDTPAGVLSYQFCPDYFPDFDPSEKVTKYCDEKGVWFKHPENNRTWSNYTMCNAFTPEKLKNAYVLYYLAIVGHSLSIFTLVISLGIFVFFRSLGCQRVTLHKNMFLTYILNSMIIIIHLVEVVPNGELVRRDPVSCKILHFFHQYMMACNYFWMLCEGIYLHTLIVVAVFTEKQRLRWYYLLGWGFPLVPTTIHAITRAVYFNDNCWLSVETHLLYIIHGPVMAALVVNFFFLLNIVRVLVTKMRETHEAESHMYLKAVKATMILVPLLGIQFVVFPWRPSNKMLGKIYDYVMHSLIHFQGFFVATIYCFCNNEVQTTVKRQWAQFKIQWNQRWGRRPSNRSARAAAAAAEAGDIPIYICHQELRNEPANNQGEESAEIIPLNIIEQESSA
T1 sequence (looked up) 2: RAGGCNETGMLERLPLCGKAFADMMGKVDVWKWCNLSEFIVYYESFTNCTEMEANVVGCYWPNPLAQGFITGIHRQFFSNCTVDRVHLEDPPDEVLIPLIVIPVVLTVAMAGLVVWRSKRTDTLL

T2: human calcitonin receptor (human, UniProt P30988 25-474)
T2 sequence (looked up): T1 sequence (looked up) 1

B1: Peptide 150 (SEQ ID NO: 150) (peptide)
peptide: K([γGlu-C18 diacid])CNTATCATQRLANFL[Aib]HSS[Dab]NFGPILPPTNVGSNTY-NH2
modifications: disulfide 2-7; N-terminus assumed
SMILES: CC[C@H](C)[C@H](NC(=O)[C@@H]1CCCN1C(=O)CNC(=O)[C@H](Cc1ccccc1)NC(=O)[C@H](CC(N)=O)NC(=O)[C@H](CCN)NC(=O)[C@H](CO)NC(=O)[C@H](CO)NC(=O)[C@H](Cc1c[nH]cn1)NC(=O)C(C)(C)NC(=O)[C@H](CC(C)C)NC(=O)[C@H](Cc1ccccc1)NC(=O)[C@H](CC(N)=O)NC(=O)[C@H](C)NC(=O)[C@H](CC(C)C)NC(=O)[C@H](CCCNC(=N)N)NC(=O)[C@H](CCC(N)=O)NC(=O)[C@@H](NC(=O)[C@H](C)NC(=O)[C@@H]1CSSC[C@H](NC(=O)[C@@H](N)CCCCNC(=O)CC[C@H](NC(=O)CCCCCCCCCCCCCCCCC(=O)O)C(=O)O)C(=O)N[C@@H](CC(N)=O)C(=O)N[C@@H]([C@@H](C)O)C(=O)N[C@@H](C)C(=O)N[C@@H]([C@@H](C)O)C(=O)N1)[C@@H](C)O)C(=O)N[C@@H](CC(C)C)C(=O)N1CCC[C@H]1C(=O)N1CCC[C@H]1C(=O)N[C@H](C(=O)N[C@@H](CC(N)=O)C(=O)N[C@H](C(=O)NCC(=O)N[C@@H](CO)C(=O)N[C@@H](CC(N)=O)C(=O)N[C@H](C(=O)N[C@@H](Cc1ccc(O)cc1)C(N)=O)[C@@H](C)O)C(C)C)[C@@H](C)O
B2: Peptide 154 (SEQ ID NO: 154) (peptide)
peptide: K([γGlu-C18 diacid])KCNTATCATQRLANFL[Aib]HSSGNFGPILPPTNVGSNTY-NH2
modifications: disulfide 3-8; N-terminus assumed
SMILES: CC[C@H](C)[C@H](NC(=O)[C@@H]1CCCN1C(=O)CNC(=O)[C@H](Cc1ccccc1)NC(=O)[C@H](CC(N)=O)NC(=O)CNC(=O)[C@H](CO)NC(=O)[C@H](CO)NC(=O)[C@H](Cc1c[nH]cn1)NC(=O)C(C)(C)NC(=O)[C@H](CC(C)C)NC(=O)[C@H](Cc1ccccc1)NC(=O)[C@H](CC(N)=O)NC(=O)[C@H](C)NC(=O)[C@H](CC(C)C)NC(=O)[C@H](CCCNC(=N)N)NC(=O)[C@H](CCC(N)=O)NC(=O)[C@@H](NC(=O)[C@H](C)NC(=O)[C@@H]1CSSC[C@H](NC(=O)[C@H](CCCCN)NC(=O)[C@@H](N)CCCCNC(=O)CC[C@H](NC(=O)CCCCCCCCCCCCCCCCC(=O)O)C(=O)O)C(=O)N[C@@H](CC(N)=O)C(=O)N[C@@H]([C@@H](C)O)C(=O)N[C@@H](C)C(=O)N[C@@H]([C@@H](C)O)C(=O)N1)[C@@H](C)O)C(=O)N[C@@H](CC(C)C)C(=O)N1CCC[C@H]1C(=O)N1CCC[C@H]1C(=O)N[C@H](C(=O)N[C@@H](CC(N)=O)C(=O)N[C@H](C(=O)NCC(=O)N[C@@H](CO)C(=O)N[C@@H](CC(N)=O)C(=O)N[C@H](C(=O)N[C@@H](Cc1ccc(O)cc1)C(N)=O)[C@@H](C)O)C(C)C)[C@@H](C)O
B3: Peptide 17 (SEQ ID NO: 17) (peptide)
peptide: K([AEEA-AEEA-γGlu-C18 diacid])CNTATCATQRLANFLRHSSNN[αMeF]GPILPPTEVGSNTY-NH2
modifications: disulfide 2-7; N-terminus assumed
SMILES: CC[C@H](C)[C@H](NC(=O)[C@@H]1CCCN1C(=O)CNC(=O)[C@](C)(Cc1ccccc1)NC(=O)[C@H](CC(N)=O)NC(=O)[C@H](CC(N)=O)NC(=O)[C@H](CO)NC(=O)[C@H](CO)NC(=O)[C@H](Cc1c[nH]cn1)NC(=O)[C@H](CCCNC(=N)N)NC(=O)[C@H](CC(C)C)NC(=O)[C@H](Cc1ccccc1)NC(=O)[C@H](CC(N)=O)NC(=O)[C@H](C)NC(=O)[C@H](CC(C)C)NC(=O)[C@H](CCCNC(=N)N)NC(=O)[C@H](CCC(N)=O)NC(=O)[C@@H](NC(=O)[C@H](C)NC(=O)[C@@H]1CSSC[C@H](NC(=O)[C@@H](N)CCCCNC(=O)COCCOCCNC(=O)COCCOCCNC(=O)CC[C@H](NC(=O)CCCCCCCCCCCCCCCCC(=O)O)C(=O)O)C(=O)N[C@@H](CC(N)=O)C(=O)N[C@@H]([C@@H](C)O)C(=O)N[C@@H](C)C(=O)N[C@@H]([C@@H](C)O)C(=O)N1)[C@@H](C)O)C(=O)N[C@@H](CC(C)C)C(=O)N1CCC[C@H]1C(=O)N1CCC[C@H]1C(=O)N[C@H](C(=O)N[C@@H](CCC(=O)O)C(=O)N[C@H](C(=O)NCC(=O)N[C@@H](CO)C(=O)N[C@@H](CC(N)=O)C(=O)N[C@H](C(=O)N[C@@H](Cc1ccc(O)cc1)C(N)=O)[C@@H](C)O)C(C)C)[C@@H](C)O
B4: Peptide 155 (SEQ ID NO: 155) (peptide)
peptide: K([γGlu-C18 diacid])CNTATCATQRLANFL[Aib]HSSNNFGPILPPTRVGSNTY-NH2
modifications: disulfide 2-7; N-terminus assumed
SMILES: CC[C@H](C)[C@H](NC(=O)[C@@H]1CCCN1C(=O)CNC(=O)[C@H](Cc1ccccc1)NC(=O)[C@H](CC(N)=O)NC(=O)[C@H](CC(N)=O)NC(=O)[C@H](CO)NC(=O)[C@H](CO)NC(=O)[C@H](Cc1c[nH]cn1)NC(=O)C(C)(C)NC(=O)[C@H](CC(C)C)NC(=O)[C@H](Cc1ccccc1)NC(=O)[C@H](CC(N)=O)NC(=O)[C@H](C)NC(=O)[C@H](CC(C)C)NC(=O)[C@H](CCCNC(=N)N)NC(=O)[C@H](CCC(N)=O)NC(=O)[C@@H](NC(=O)[C@H](C)NC(=O)[C@@H]1CSSC[C@H](NC(=O)[C@@H](N)CCCCNC(=O)CC[C@H](NC(=O)CCCCCCCCCCCCCCCCC(=O)O)C(=O)O)C(=O)N[C@@H](CC(N)=O)C(=O)N[C@@H]([C@@H](C)O)C(=O)N[C@@H](C)C(=O)N[C@@H]([C@@H](C)O)C(=O)N1)[C@@H](C)O)C(=O)N[C@@H](CC(C)C)C(=O)N1CCC[C@H]1C(=O)N1CCC[C@H]1C(=O)N[C@H](C(=O)N[C@@H](CCCNC(=N)N)C(=O)N[C@H](C(=O)NCC(=O)N[C@@H](CO)C(=O)N[C@@H](CC(N)=O)C(=O)N[C@H](C(=O)N[C@@H](Cc1ccc(O)cc1)C(N)=O)[C@@H](C)O)C(C)C)[C@@H](C)O
B5: Peptide 156 (SEQ ID NO: 156) (peptide)
peptide: K([γGlu-C18 diacid])KCNTATCATQRLA[Dab]FL[Aib]HSSNNFGPILPPTEVGSNTY-NH2
modifications: disulfide 3-8; N-terminus assumed
SMILES: CC[C@H](C)[C@H](NC(=O)[C@@H]1CCCN1C(=O)CNC(=O)[C@H](Cc1ccccc1)NC(=O)[C@H](CC(N)=O)NC(=O)[C@H](CC(N)=O)NC(=O)[C@H](CO)NC(=O)[C@H](CO)NC(=O)[C@H](Cc1c[nH]cn1)NC(=O)C(C)(C)NC(=O)[C@H](CC(C)C)NC(=O)[C@H](Cc1ccccc1)NC(=O)[C@H](CCN)NC(=O)[C@H](C)NC(=O)[C@H](CC(C)C)NC(=O)[C@H](CCCNC(=N)N)NC(=O)[C@H](CCC(N)=O)NC(=O)[C@@H](NC(=O)[C@H](C)NC(=O)[C@@H]1CSSC[C@H](NC(=O)[C@H](CCCCN)NC(=O)[C@@H](N)CCCCNC(=O)CC[C@H](NC(=O)CCCCCCCCCCCCCCCCC(=O)O)C(=O)O)C(=O)N[C@@H](CC(N)=O)C(=O)N[C@@H]([C@@H](C)O)C(=O)N[C@@H](C)C(=O)N[C@@H]([C@@H](C)O)C(=O)N1)[C@@H](C)O)C(=O)N[C@@H](CC(C)C)C(=O)N1CCC[C@H]1C(=O)N1CCC[C@H]1C(=O)N[C@H](C(=O)N[C@@H](CCC(=O)O)C(=O)N[C@H](C(=O)NCC(=O)N[C@@H](CO)C(=O)N[C@@H](CC(N)=O)C(=O)N[C@H](C(=O)N[C@@H](Cc1ccc(O)cc1)C(N)=O)[C@@H](C)O)C(C)C)[C@@H](C)O
B6: Peptide 151 (SEQ ID NO: 151) (peptide)
peptide: K([γGlu-C18 diacid])CNTATCATQRLANFL[Aib]HSSNNFGPI[dL]PPTNVGSNTY-NH2
modifications: disulfide 2-7; N-terminus assumed
SMILES: CC[C@H](C)[C@H](NC(=O)[C@@H]1CCCN1C(=O)CNC(=O)[C@H](Cc1ccccc1)NC(=O)[C@H](CC(N)=O)NC(=O)[C@H](CC(N)=O)NC(=O)[C@H](CO)NC(=O)[C@H](CO)NC(=O)[C@H](Cc1c[nH]cn1)NC(=O)C(C)(C)NC(=O)[C@H](CC(C)C)NC(=O)[C@H](Cc1ccccc1)NC(=O)[C@H](CC(N)=O)NC(=O)[C@H](C)NC(=O)[C@H](CC(C)C)NC(=O)[C@H](CCCNC(=N)N)NC(=O)[C@H](CCC(N)=O)NC(=O)[C@@H](NC(=O)[C@H](C)NC(=O)[C@@H]1CSSC[C@H](NC(=O)[C@@H](N)CCCCNC(=O)CC[C@H](NC(=O)CCCCCCCCCCCCCCCCC(=O)O)C(=O)O)C(=O)N[C@@H](CC(N)=O)C(=O)N[C@@H]([C@@H](C)O)C(=O)N[C@@H](C)C(=O)N[C@@H]([C@@H](C)O)C(=O)N1)[C@@H](C)O)C(=O)N[C@H](CC(C)C)C(=O)N1CCC[C@H]1C(=O)N1CCC[C@H]1C(=O)N[C@H](C(=O)N[C@@H](CC(N)=O)C(=O)N[C@H](C(=O)NCC(=O)N[C@@H](CO)C(=O)N[C@@H](CC(N)=O)C(=O)N[C@H](C(=O)N[C@@H](Cc1ccc(O)cc1)C(N)=O)[C@@H](C)O)C(C)C)[C@@H](C)O

Molecular target: T1, human amylin receptor (calcitonin …)
Assay: cell-based or functional assay

Binder | EC50 (cAMP production) | Ratio (EC50 hCTR / EC50 hAMYR3)
B1 | 0.179 nM | 23.4
B2 | 0.574 nM | 2.7
B3 | 0.365 nM | 19
B4 | 0.329 nM | 11.9
B5 | 3.75 nM | 22.3
B6 | 0.061 nM | 14.7

Molecular target: T2, human calcitonin receptor
Assay: cell-based or functional assay

Binder | EC50 (cAMP production)
B1 | 4.18 nM
B2 | 1.54 nM
B3 | 7.08 nM
B4 | 3.93 nM
B5 | 83.8 nM
B6 | 0.898 nM
